Molecular target: Strep-tag II-tagged VgrG spike protein of EAEC T6SS-1 (enteroaggregative Escherichia coli (EAEC) 17-2)
Test: cryo-EM structure; single particle cryo-EM of the co-produced, double-affinity and SEC purified PAAR^FL-^SVgrG-Tle1^H complex; AlphaFold2 model plus PDB 6SJL docked into the maps

For “Strep-tag II-tagged VgrG spike protein of EAEC T6SS-1 (natural protein)”, which stoichiometry N is on record?
Its stoichiometry N is 3.

From publication PMC10715212
